This is an account of results in patent publication US20240287177A1 (Merck KGaA, published 2024).

The target in test [1] is T1, recombinant human NKp30 extracellular domain, his-tagged (human, UniProt O14931 19-135).
T1 construct: BLI used human NKp30 bought from Abcam (his-tagged ECD); also called rh NKp30 ECD; human NKp30 (Abcam); not shown: his tag
T1 sequence: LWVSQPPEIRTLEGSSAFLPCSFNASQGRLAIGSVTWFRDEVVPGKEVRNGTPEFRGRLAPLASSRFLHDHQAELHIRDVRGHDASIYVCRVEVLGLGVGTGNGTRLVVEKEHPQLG
The test is described as follows: BLI as in Example 1, maximum binding capacity.

Test [2] concerns the target T1, recombinant human NKp30 extracellular …. The test is described as follows: BLI as in Example 1.
The target of test [3] is recombinant human NKp30 extracellular domain, his-tagged (human) (UniProt O14931). The test is described as follows: BLI, SEEDbody on anti-human Fc sensors, soluble NKp30, 1:1 fit.
Test [4] deals with NKp30 on human NK cells (human) (UniProt O14931). The test is described as follows: cell-based or functional assay.
NKp30 on human NK cells (human), sequence (O14931 19-201): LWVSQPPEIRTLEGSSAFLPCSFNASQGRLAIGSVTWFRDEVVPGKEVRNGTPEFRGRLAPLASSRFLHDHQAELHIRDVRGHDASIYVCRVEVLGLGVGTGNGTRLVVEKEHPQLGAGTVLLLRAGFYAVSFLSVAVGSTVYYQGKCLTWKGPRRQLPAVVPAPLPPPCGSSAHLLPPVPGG
The target in test [5] is T1, recombinant human NKp30 extracellular …. The test is described as follows: BLI as in Example 1. This is another data set of the same source.
For test [6] the target is unchanged. The test can be described thus: BLI as in Example 1, maximum binding capacity. The source holds these as a separate data set.

As a reminder, the Kd is the constant that tells how readily two partners part at equilibrium. As usually defined, the koff is the rate constant with which the complex falls apart. The kon is the second-order rate constant of association.

Read-outs that look alike come from different tables or passages of the source.

B1: VHH2 (parental, as tested in Example 9) (VHH)
VHH: DVQLQESGGGLVQAGGSLRLSCAVSGQTWTNYHIGWFRQAPGKARESVASIEWGGRGTYATDSVKGRFTISRDNAKNTVYLQMNSLKPEDTAVYYCAAQSSSRSPLESNYDYWGQGTQVTVSS
notes: expressed and measured by BLI 'as described in Experiment 1' (there: bispecific SEEDbody on anti-human Fc sensors)
Consider B1, for which, in test [1], the “Emax (nm)” value turned out to be 0.17 nm. Further, in test [2], the Kd is 2.88 nM.

B2: VHH2.11 (humanized) (VHH)
VHH: EVQLVESGGGVVQPGGSLRLSCAASGQTWTNYHIGWFRQAPGKGLESVASIEWGGRGTYATDSVKGRFTISRDNAKNTVYLQMNSLRAEDTAVYYCAAQSSSRSPLESNYDYWGQGTLVTVSS
notes: as for B1
B2: the “Emax (nm)” value in test [1] was determined as 0.16 nm. Moreover, the Kd in test [2] was 4.7 nM.

B3: VHH2.1 (humanized) (VHH)
VHH: EVQLVESGGGVVQAGGSLRLSCAVSGQTWTNYHIGWFRQAPGKARESVASIEWGGRGTYATDSVKGRFTISRDNAKNTVYLQMNSLRAEDTAVYYCAAQSSSRSPLESNYDYWGQGTLVTVSS
notes: as for B1
Consider B3, for which the “Emax (nm)” value in test [1] was found to be 0.18 nm. In test [2], the Kd was found to be 2.91 nM.

B4: VHH2.12 (humanized) (VHH)
VHH: EVQLVESGGGVVQPGGSLRLSCAASGQTWTNYHIGWFRQAPGKGLEWVASIEWGGRGTYATDSVKGRFTISRDNAKNTVYLQMNSLRAEDTAVYYCAAQSSSRSPLESNYDYWGQGTLVTVSS
notes: as for B1
As to B4, in test [1], the “Emax (nm)” value amounted to 0.14 nm. Also, the Kd in test [2] came to 4.24 nM.

B5: VHH2.7 (humanized) (VHH)
VHH: EVQLVESGGGVVQPGGSLRLSCAVSGQTWTNYHIGWFRQAPGKGLESVASIEWGGRGTYATDSVKGRFTISRDNAKNTLYLQMNSLRAEDTAVYYCAAQSSSRSPLESNYDYWGQGTLVTVSS
notes: as for B1
With B5, in test [1], the “Emax (nm)” value is 0.1 nm. Also, the Kd in test [2] stood at 9.76 nM.

B6: VHH2.8 (humanized) (VHH)
VHH: EVQLVESGGGVVQPGGSLRLSCAVSGQTWTNYHIGWFRQAPGKGLEWVASIEWGGRGTYATDSVKGRFTISRDNAKNTLYLQMNSLRAEDTAVYYCAAQSSSRSPLESNYDYWGQGTLVTVSS
notes: as for B1
On to B6, for which the “Emax (nm)” value in test [1] was found to be 0.1 nm. For the same molecule, the dissociation constant Kd in test [2] is 6.61 nM.

B7: VHH2.15 (humanized) (VHH)
VHH: EVQLVESGGGVVQPGGSLRLSCAASGQTWTNYHIGWFRQAPGKGLESVASIEWGGRGTYATDSVKGRFTISRDNAKNTLYLQMNSLRAEDTAVYYCAAQSSSRSPLESNYDYWGQGTLVTVSS
notes: as for B1
In the case of B7, the “Emax (nm)” value in test [1] was 0.07 nm. In test [2], the Kd was 12.3 nM.

B8: VHH2.6 (humanized) (VHH)
VHH: EVQLVESGGGVVQPGGSLRLSCAVSGQTWTNYHIGWVRQAPGKGLESVASIEWGGRGTYATDSVKGRFTISRDNAKNTVYLQMNSLRAEDTAVYYCAAQSSSRSPLESNYDYWGQGTLVTVSS
notes: as for B1
Take B8: the “Emax (nm)” value in test [1] came out at 0.07 nm. For the same molecule, in test [2], the Kd is 27.6 nM.

B9: VHH2.5 (humanized) (VHH)
VHH: EVQLVESGGGVVQPGGSLRLSCAVSGQTWTNYHIGWFRQAPGKGLESVASIEWGGRGTYATDSVKGRFTISRDNAKNTVYLQMNSLRAEDTAVYYCAAQSSSRSPLESNYDYWGQGTLVTVSS
notes: as for B1
As to B9, in test [1], the “Emax (nm)” value came to 0.11 nm. In addition, in test [2], the Kd is 2.92 nM.

B10: VHH2.16 (humanized) (VHH)
VHH: EVQLVESGGGVVQPGGSLRLSCAASGQTWTNYHIGWFRQAPGKGLEWVASIEWGGRGTYATDSVKGRFTISRDNAKNTLYLQMNSLRAEDTAVYYCAAQSSSRSPLESNYDYWGQGTLVTVSS
notes: as for B1
With B10, the “Emax (nm)” value in test [1] amounted to 0.11 nm. Also, the Kd in test [2] was determined as 4.71 nM.

B11: VHH2.3 (humanized) (VHH)
VHH: EVQLVESGGGVVQPGGSLRLSCAVSGQTWTNYHIGWFRQAPGKARESVASIEWGGRGTYATDSVKGRFTISRDNAKNTLYLQMNSLRAEDTAVYYCAAQSSSRSPLESNYDYWGQGTLVTVSS
notes: as for B1
For the molecule B11, in test [1], the “Emax (nm)” value was 0.13 nm. Also, the Kd in test [2] is 9.97 nM.

B12: VHH2.2 (humanized) (VHH)
VHH: EVQLVESGGGVVQPGGSLRLSCAVSGQTWTNYHIGWFRQAPGKARESVASIEWGGRGTYATDSVKGRFTISRDNAKNTVYLQMNSLRAEDTAVYYCAAQSSSRSPLESNYDYWGQGTLVTVSS
notes: as for B1
With B12, the “Emax (nm)” value in test [1] stood at 0.15 nm. The Kd in test [2] stood at 2.1 nM.

B13: VHH3 SEEDbody eff- (bispecific antibody, part only; not given: silenced SEED Fc and cetuximab Fab, V domains shown, not shown: another chain or arm of the molecule; a dimerising Fc or GST; small tags and cut ends)
VHH: DVQLQESGGGLVQPGESLKLSCLVSGVTYHFYDITWFRQAPGLEREGVSCISYASGTTKFADSVKGRFTISRDNAKNAVYLEMNSLKPEDTAVYFCATQGSGSCSDFMSAGSVLSWGQGTQVTVSS
Turning to B13, in test [3], the Kd came to 0.281 nM, the koff was found to be 0.00017 s⁻¹ and the kon is 604000 M⁻¹ s⁻¹. In addition, in test [4], the EC50 (nM), MNC based killing of A431 cells, E:T 80:1 stood at 0.00284 nM and the Max. Killing (% Lysis), MNC based killing of A431 cells, E:T 80:1 came to 53 % Lysis.

B14: VHH1 (parental, as tested in Example 8) (VHH)
VHH: DVQLQESGGGLVQPGGSLRLSCATSGFTLDDYTIGWVRQAPGKEHEGVSCFSPSDGTTYYADSVKGRFTFSRDNAKNTVYLQMNSLKPEDTAVYYCAASFADGSSWCYDYWGQGTQVTVSS
notes: as for B1
Consider B14, for which the Kd in test [5] is 0.248 nM. The “Emax (nm)” value in test [6] was 0.13 nm.

B15: VHH1.4 (humanized) (VHH)
VHH: EVQLVESGGGVVQPGGSLRLSCATSGFTLDDYTIGWVRQAPGKGLEGVSCFSPSDGTTYYADSVKGRFTFSRDNAKNTVYLQMNSLRAEDTAVYYCAASFADGSSWCYDYWGQGTLVTVSS
notes: as for B1
Regarding B15, the Kd in test [5] came out at 0.547 nM. For the same molecule, the “Emax (nm)” value in test [6] was found to be 0.12 nm.

B16: VHH1.1 (humanized) (VHH)
VHH: EVQLVESGGGVVQPGGSLRLSCATSGFTLDDYTIGWVRQAPGKEHEGVSCFSPSDGTTYYADSVKGRFTFSRDNAKNTVYLQMNSLRAEDTAVYYCAASFADGSSWCYDYWGQGTLVTVSS
notes: as for B1
As for B16, the Kd in test [5] was 0.275 nM. In addition, the “Emax (nm)” value in test [6] was 0.13 nm.

B17: VHH1.5 (humanized) (VHH)
VHH: EVQLVESGGGVVQPGGSLRLSCAASGFTLDDYTIGWVRQAPGKGLEGVSCFSPSDGTTYYADSVKGRFTISRDNAKNTVYLQMNSLRAEDTAVYYCAASFADGSSWCYDYWGQGTLVTVSS
notes: as for B1
With B17, the Kd in test [5] is 0.888 nM. In addition, in test [6], the “Emax (nm)” value amounted to 0.1 nm.

B18: VHH1.2 (humanized) (VHH)
VHH: EVQLVESGGGVVQPGGSLRLSCATSGFTLDDYTIGWVRQAPGKEHEGVSCFSPSDGTTYYADSVKGRFTFSRDNAKNTLYLQMNSLRAEDTAVYYCAASFADGSSWCYDYWGQGTLVTVSS
notes: as for B1
On to B18, for which, in test [5], the Kd came to 0.293 nM. In addition, the “Emax (nm)” value in test [6] was found to be 0.12 nm.

B19: VHH1.3 (humanized) (VHH)
VHH: EVQLVESGGGVVQPGGSLRLSCAASGFTLDDYTIGWVRQAPGKEHEGVSCFSPSDGTTYYADSVKGRFTISRDNAKNTLYLQMNSLRAEDTAVYYCAASFADGSSWCYDYWGQGTLVTVSS
notes: as for B1
With B19, the Kd in test [5] is 1.07 nM. Moreover, the “Emax (nm)” value in test [6] turned out to be 0.12 nm.

B20: VHH1.6 (humanized) (VHH)
VHH: EVQLVESGGGVVQPGGSLRLSCATSGFTLDDYTIGWVRQAPGKGLEGVSCFSPSDGTTYYADSVKGRFTFSRDNAKNTLYLQMNSLRAEDTAVYYCAASFADGSSWCYDYWGQGTLVTVSS
notes: as for B1
For B20, the Kd in test [5] is 0.797 nM. Besides, the “Emax (nm)” value in test [6] was 0.14 nm.
